Results from article PMC4459817, “Vasculotide reduces endothelial permeability and tumor cell extravasation in the absence of binding to or agonistic activation of Tie2” (EMBO Molecular Medicine, 2015).
Blank lines part the entries; values can stand above or below the molecule they belong to.

Legend:
[1] = test system: Tie2− tumor cells (LM2-4luc); experiment: MTS cell viability assay, tumor cells; type: cell-based, human; details: 48 h MTS; Supplementary Fig S2 (VT 0.1 to 1000 ng/mL)
Protocol: TCs were cultured in DMEM High Glucose basal media supplemented with 5% FBS and grown humidified incubators at 37 °C, 21%O2 and 5%CO2 unless otherwise specified. LM2-4 luc is a highly metastatically aggressive variant of the human breast carcinoma MDA-MB-231 cell line (derived through serial in vivo selection of lung metastases from orthotopic implantations in immunodeficient mice) that has been transfected with a firefly luciferase vector (Man et al, 2007; Ebos et al, 2009). HT29luc is a human colon carcinoma cell line also transfected with the luciferase gene (Hackl et al, 2013). SN12luc refers to a luciferase-tagged and highly metastatic clone of a human renal cell carcinoma cell line, SN12-PM6-L1luc (Jedeszko et al, 2015). MeWo is a human melanoma cell line (Ebos et al, 2009).
2. Endothelial cells (ECs) […]
5,000 LM2-4luc or HMVEC-LBl cells, in 100uL of their regular growth media, were seeded per well on a 96-well plate. […] Absorbances were read at 490nm and background-corrected with reference 560nm readings or acellular treatment-only […]
4. […] Protein concentrations in TC-CM vs. control media were measured using: a Quantikine ELISA kit (R&D Systems DVE00) for human VEGF; a FlowCytomix Multiplex kit (eBioscience BMS810FF) for human IL-6 and IL-8; and a BCA protein assay kit (Thermo Scientific) for total protein.

[2] = target: T1, mouse Tie2-Fc (Fc-conjugated extracellular domain of Tie2) (mouse, UniProt Q02858 23-746); experiment: pull-down; purified human or mouse Tie2-Fc coupled to protein A sepharose beads; input ligand (rhAng1 or VT) incubated with the beads; bound and unbound fractions compared; beads only as control; details: both partners purified
T1 construct: Tie2 receptor tyrosine kinase, mouse, extracellular domain; the supplementary Materials and Methods may tell them; also called mTie2-Fc; mTie2; source: purified

[3] = target: T2, human Tie2-Fc (Fc-conjugated extracellular domain of Tie2) (human, UniProt Q02763 23-748); experiment: as above; details: both partners purified
T2 construct: Tie2 receptor tyrosine kinase, human, extracellular domain; the supplementary Materials and Methods may tell them; also called hTie2-Fc; hTie2; source: purified

Molecule: CHHHRHSF [Vasculotide, 4-armed maleimide-functionalized polyethylene glycol (PEG) backbone to link together four cysteine-capped T7 peptides, that is, CHHHRHSF]
cytotoxic effect on TCs / viability [1]: no direct cytotoxic effect

binding result [2]: binds
binding result [3]: binds
B1: recombinant human Ang1 (rhAng1) (ligand, UniProt Q15389 16-498, looked up)
chain: HIGCSNQRRSPENSGRRYNRIQHGQCAYTFILPEHDGNCRESTTDQYNTNALQRDAPHVEPDFSSQKLQHLEHVMENYTQWLQKLENYIVENMKSEMAQIQQNAVQNHTATMLEIGTSLLSQTAEQTRKLTDVETQVLNQTSRLEIQLLENSLSTYKLEKQLLQQTNEILKIHEKNSLLEHKILEMEGKHKEELDTLKEEKENLQGLVTRQTYIIQELEKQLNRATTNNSVLQKQQLELMDTVHNLVNLCTKEGVLLKGGKREEEKPFRDCADVYQAGFNKSGIYTIYINNMPEPKKVFCNMDVNGGGWTVIQHREDGSLDFQRGWKEYKMGFGNPSGEYWLGNEFIFAITSQRQYMLRIELMDWEGNRAYSQYDRFHIGNEKQNYRLYLKGHTGTAGKQSSLILHGADFSTKDADNDNCMCKCALMLTGGWWFDACGPSNLNGMFYTAGQNHGKLNGIKWHYFKGPSYSLRSTTMMIRPLDF
notes: angiopoietin-1, human, recombinant; also called angiopoietin-1; source: bought: R&D Systems (named for the Boyden chamber experiments)
